# Results from patent US10000771B2, “Nuclear targeting sequences” (Yeda Research and Development Co. Ltd., priority 2007, dated 2018).
# B1: APA-ERK2: GFP-ERK2 with the two Ser residues of the SPS sequence replaced by Ala (protein)
# chain: MAAAAAAGPEMVRGQVFDVGPRYTNLSYIGEGAYGMVCSAYDNLNKVRVAIKKISPFEHQTYCQRTLREIKILLRFRHENIIGINDIIRAPTIEQMKDVYIVQDLMETDLYKLLKTQHLSNDHICYFLYQILRGLKYIHSANVLHRDLKPSNLLLNTTCDLKICDFGLARVADPDHDHTGFLTEYVATRWYRAPEIMLNSKGYTKSIDIWSVGCILAEMLSNRPIFPGKHYLDQLNHILGILGAPAQEDLNCIINLKARNYLLSLPHKNKVPWNRLFPNADSKALDLLDKMLTFNPHKRIEVEQALAHPYLEQYYDPSDEPIAEAPFKFDMELDDLPKEKLKELIFEETARFQPGYRS
# modifications: left off: large carriers
# Experiments:
# Nup153c = assay: Interaction with recombinant His-Nup153c; format: binding; conditions: immunoprecipitated ERK2 incubated with 0.5 μg recombinant His-Nup153c
# Procedure: FIGS. 19A-19C are autoradiographs illustrating that phospho-SPS interacts with importin-7 and releases Nup153c binding without involvment of importin-β. […]. Interaction of ERK2 with Importin-7 is enhanced by EGF stimulation and EPE mutation. HeLa cells overexpressing WT-ERK (WT), ERK-APA (APA), ERK-EPE (EPE) or GFP were serum starved and treated with EGF (50 ng/ml, 10 min). The extracts of the treated cells were then subjected to coimmunoprecipitation using A/G beads pre-conjugated with anti GFP Ab and mild washes. The coimmunoprecipitated importin-7 (first panel) and importin-β (third panel), as well as their loading amounts (panels 2 and 4 respectively) were determined by WB using anti importin-7 (αImp7) and importin-β (αImpβ) Abs. The equal amount of immunoprecipitated ERKs was determined with anti GFP (αGFP; IP) Ab. FIG. 19B. Interaction of 2GFP-SPS and its mutants with importin-7. HeLa cells overexpressing 2GFP, 2GFP-SPS, 2GFP-APA and 2GFP-EPE constructs were subjected to coimmunoprecipitation as described in FIG. 19A (without EGF stimulation). FIG. 19C. Interaction of NUP153 with WTERK2 and its APA and EPE mutants. NUP153c is elevated in APA-ERK2, but reduced in EPE-ERK2. Immunoprecipitated and stringently washed WT-ERK2 (WT), APA-ERK2 (APA) or ERK2 from […] cells pre-treated with or without TPA (250 nM, 15 min) were incubated with 0.5 μg recombinant His-Nup153c. […]
# Act-GST-ERK2 = biological target: T1, Act-GST-ERK2 (Rattus norvegicus, UniProt P63086); assay: In vitro kinase assay with active GST-ERK2; format: biochemical; conditions: immunoprecipitated protein as substrate, relative to GFP-ERK2
# T1 construct: made in house; host or cells: bacteria co-expressing active MEK1
# Procedure: FIGS. 4A-4I are autoradiographs characterizing SPS phosphorylation using an Ab to the phosphorylated SPS domain. FIG. 4A illustrates an elevation of pSPS detection upon stimulation. COS cells were transfected with WT-GFP-ERK2. Twenty-four hr after transfection, the cells were serum-starved for 16 hr and subsequently treated with the general stimulator VOOH (V, 100 μM Na3VO4 and 200 μM H2O2, 15 min), TPA (T, 250 nM, 15 min), EGF (E, 50 ng/ml for 15 min), or left untreated (NT). The GFP-ERK2 was immunoprecipitated with anti GFP Ab, extensively washed, and the IP was then subjected to Western blotting with anti phospho SPS-ERK (αphoSPS-ERK) and anti general ERK (αgen-ERK) Abs. FIG. 4B is a time course of SPS phosphorylation. […] SPS phosphorylation was detected using the anti pSPS Abs, and this was compared to the amount of genral ERKs detected by αgERK. […] SPS-phosphorylation was detected using αpSPS and αgERK Abs. […] The phosphorylation (^32P-ERK2) of ERK and its mutants was detected by autoradiography. […]
# Some protein kinases downstream of MEKs that may be involved in the SPS phosphorylation are ERKs themselves (autophosphorylation) as their consensus phosphorylation site includes Ser/Thr followed by a Pro (Yoon and Seger, 2006, Growth Factors, 24, 21-44). […] As expected, ^32P incorporation to GFP-ERK2 was detected mainly when this protein was incubated with Act-ERK2. […]
# T1 sequence (P63086 whole entry): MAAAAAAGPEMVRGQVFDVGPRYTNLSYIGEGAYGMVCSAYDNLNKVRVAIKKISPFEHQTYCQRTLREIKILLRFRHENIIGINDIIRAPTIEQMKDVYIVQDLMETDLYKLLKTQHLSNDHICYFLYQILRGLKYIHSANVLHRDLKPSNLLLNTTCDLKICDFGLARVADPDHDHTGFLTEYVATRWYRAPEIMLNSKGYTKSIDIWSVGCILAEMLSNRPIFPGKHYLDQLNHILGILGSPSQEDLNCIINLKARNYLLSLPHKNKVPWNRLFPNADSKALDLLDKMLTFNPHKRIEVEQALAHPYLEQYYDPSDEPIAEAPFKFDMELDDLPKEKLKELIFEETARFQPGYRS
molecule,measurement,setting,value
B1,interaction with Nup153,Nup153c,increased
same,reduction of phosphorylation (32P incorporation) by Act-ERK2,Act-GST-ERK2,~80%
